Experiments:
[1] = molecular target: T1, rat IL-23R extracellular domain (ECD) protein (rat); assay: SPR Biacore 8K, supernatant
T1 construct: also called rat IL-23R ECD; F1LX96 amino acids 24-354
T1 chain: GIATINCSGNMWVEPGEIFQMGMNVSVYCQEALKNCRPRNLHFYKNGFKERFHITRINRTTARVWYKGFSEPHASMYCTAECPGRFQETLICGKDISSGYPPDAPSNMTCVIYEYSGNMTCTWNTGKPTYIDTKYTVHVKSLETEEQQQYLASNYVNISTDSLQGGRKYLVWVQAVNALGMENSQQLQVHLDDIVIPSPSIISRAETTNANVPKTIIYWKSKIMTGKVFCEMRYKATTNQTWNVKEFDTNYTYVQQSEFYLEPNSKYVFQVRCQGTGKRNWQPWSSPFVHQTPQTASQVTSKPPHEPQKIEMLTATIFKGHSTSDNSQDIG
Method: (§1) Affinity by SPR using Biacore 8K. Affinity measurements using Surface Plasmon Resonance (SPR) were performed using a Biacore 8K system (Cytiva). […] Approximately 9000-10000 RU (response units) of mAbs were immobilized. The kinetic experiments were performed at 25° C. in running buffer 1× of (HBS-P+ Buffer 10× (Cytiva #BR100671)+100 μg/ml BSA). To perform kinetic experiments, approximately 150 RU of mAbs were captured followed by injections of human IL-23R or rat IL-23R at concentrations ranging from 0.8 nM to 500 nM (in a 5-fold serial dilution). The association phase was monitored for 3 minutes at 50 μL/min, then followed by 30 minutes of buffer flow (dissociation phase). […] The collected data were processed using Biacore insight Evaluation software (Version 3.0.12.15655). The kinetic analysis of the data was performed using a Langmuir 1:1 binding model. The result for each mAb was reported in the format of Ka (On-rate), Kd (Off-rate) and KD (equilibrium dissociation constant).

[2] = molecular target: T2, Recombinant human IL-23 receptor (IL-23R) extracellular domain (ECD) protein (human, UniProt Q5VWK5 24-355); assay: SPR Biacore 8K, supernatant, analysis 1
T2 construct: also called human IL-23R ECD; hu IL-23R ECD
T2 sequence: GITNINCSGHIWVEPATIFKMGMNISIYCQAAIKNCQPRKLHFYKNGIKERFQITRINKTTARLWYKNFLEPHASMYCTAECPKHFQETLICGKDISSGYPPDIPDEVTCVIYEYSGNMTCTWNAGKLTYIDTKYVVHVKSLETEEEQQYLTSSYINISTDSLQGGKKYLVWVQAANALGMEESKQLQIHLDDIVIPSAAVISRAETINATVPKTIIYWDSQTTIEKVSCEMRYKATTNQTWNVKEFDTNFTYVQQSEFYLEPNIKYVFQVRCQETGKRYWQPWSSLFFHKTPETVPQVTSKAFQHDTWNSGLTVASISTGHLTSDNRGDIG
Method: as §1

[3] = molecular target: T2, Recombinant human IL-23 receptor …; assay: SPR Biacore 8K, supernatant, analysis 2
Method: as §1

B1: I23RB270 (antibody, mouse IgG2a, kappa, V domains shown)
VH: QVQLVQSGAEVKKPGSSVKVSCKASGGTFDSYAISWVRQAPGQGLEWMGGIIPISGYANYAQKFQGRVTITADESTSTAYMELSSLRSEDTAVYYCARDLSGGYLGLRTLYYYYFDYWGQGTLVTVSS
VL: EIVLTQSPATLSLSPGERATLSCRASQSVSSYLAWYQQKPGQAPRLLIYDASNRATGIPARFSGSGSGTDFTLTISSLEPEDFAVYYCQQRSNWPLTFGQGTKVEIKR
notes: phage display; human V regions, mouse IgG2a/kappa constant regions
In the case of B1, the binding result [1] is reported as “no binding (tested: 500 nM)”, the Kd [2] is reported as 1.91 nM and the koff [2] is reported as 0.00102 s⁻¹. For the same binder, the kon [2] was 535000 M⁻¹ s⁻¹, the Kd [3] was 2.46 nM and the koff [3] was 0.00101 s⁻¹. The kon [3] was 409000 M⁻¹ s⁻¹.

B2: I23RB269 (antibody, mouse IgG2a, kappa, V domains shown)
VH: QVQLVQSGAEVKKPGSSVKVSCKASGGTFSDASISWVRQAPGQGLEWMGTIIPISGNANYAQKFQGRVTITADESTSTAYMELSSLRSEDTAVYYCARDRYVWYYWDGYFDYWGQGTLVTVSS
VL: not shown
notes: as for B1
In the case of B2, the binding result [1] is reported as “no binding (tested: 500 nM)”, the Kd [2] is reported as 1.09 nM and the koff [2] is reported as 0.000514 s⁻¹. For the same binder, the kon [2] was 473000 M⁻¹ s⁻¹, the Kd [3] was 1.41 nM and the koff [3] was 0.000542 s⁻¹. It also gave a kon [3] of 385000 M⁻¹ s⁻¹.

B3: I23RB268 (antibody, mouse IgG2a, kappa, V domains shown)
VH: QVQLVQSGAEVKKPGSSVKVSCKASGGTFSSYYIHWVRQAPGQGLEWMGGIIPIFGYANYAQKFQGRVTITADESTSTAYMELSSLRSEDTAVYYCARDPGSYGSVYYRRSYYFDYWGQGTLVTVSS
VL: EIVLTQSPATLSLSPGERATLSCRASQSVSSYLAWYQQKPGQAPRLLIYDASNRATGIPARFSGSGSGTDFTLTISSLEPEDFAVYYCQQRSNWPLTFGQGTKVEIKR
notes: as for B1
With B3 the binding result [1] was “no binding (tested: 500 nM)”, the Kd [2] was 12 nM and the koff [2] was 0.000273 s⁻¹. It also gave a kon [2] of 22800 M⁻¹ s⁻¹, a Kd [3] of 18.9 nM and a koff [3] of 0.000308 s⁻¹. The kon [3] was 16300 M⁻¹ s⁻¹.

B4: I23RB267 (antibody, mouse IgG2a, kappa, V domains shown)
VH: EVQLVQSGAEVKKPGESLKISCKGSGYSFTSYWIGWVRQMPGKGLEWMGIIYPGDSDTRYSPSFQGQVTISADKSISTAYLQWSSLKASDTAMYYCARVWYSSWDLDYWGQGTLVTVSS
VL: not shown
notes: as for B1
B4 was tested, and the binding result [1] was “no binding (tested: 500 nM)”, the Kd [2] was 18.1 nM and the koff [2] was 0.000196 s⁻¹. The kon [2] was 10800 M⁻¹ s⁻¹, the Kd [3] was 7.56 nM and the koff [3] was 0.000178 s⁻¹. For the same binder, the kon [3] was 23500 M⁻¹ s⁻¹.

B5: I23RB98 (antibody, mouse IgG2a, kappa, V domains shown)
VH: EFQLQQSGPELVKPGASVKMSCKASGYTFTNYYMHWVKQSHGKTIEWIGYIYPNSGDTSYNQKFKGKATLTVDKSSSTAYMELRSLTSEDSAVYTCARFGGFYDAMDYWGQGTTVTVSS
VL: DIVLTQSPAIMSASLGERVTMTCTASSSVSSSYLHWYQQKPGSSPKLWIYSTSNLASGVPARFSGSGSGTSYSLTISSMEAEDAATYYCHQYHRSPFTFGSGTKLEMKR
notes: mouse immunization; mouse IgG2a/kappa
With B5 the binding result [1] was “no binding (tested: 500 nM)”, the Kd [2] was 39.1 nM and the koff [2] was 0.00294 s⁻¹. The kon [2] was 75100 M⁻¹ s⁻¹, the Kd [3] was 25.8 nM and the koff [3] was 0.0035 s⁻¹. The kon [3] was 136000 M⁻¹ s⁻¹.

B6: I23RB57 (antibody, mouse IgG2a, kappa, V domains shown)
VH: EFQLQQSGPELVKPGASVKMSCKASGYTFTNYYMHWVKQSHGKTIEWIGYIYPNSGDTSYNQKFKGKATLTVDKSSSTAYMELRSLTSEDSAVYNCARFGGFYDAMDYWGQGTSVTVSS
VL: DIVMTQSPAIMSASLGERVTMTCTASSSVSSSYLHWYQQKPGSSPKLWIYSTSNLASGVPARFSGSGSGTSYSLTISSMEAEDAATYYCHQYHRSPFTFGSGTKLEIKR
notes: as for B5
In the case of B6, the binding result [1] is reported as “no binding (tested: 500 nM)”, the Kd [2] is reported as 29.2 nM and the koff [2] is reported as 0.00299 s⁻¹. It also gave a kon [2] of 102000 M⁻¹ s⁻¹, a Kd [3] of 38.1 nM and a koff [3] of 0.00307 s⁻¹. The kon [3] was 80700 M⁻¹ s⁻¹.

B7: I23RB93 (antibody, mouse IgG2a, kappa, V domains shown)
VH: QVQLKESGPGLVQPSQSLSITCTVSGFSLTSYGVHWVRQSPGKGLEWLGVIWSGVSTDYNAAFISRLSISKDNSKSQVFFKMNSLQADDTAIYYCARSRGSYYFDYWGQGTTLTVSS
VL: DIKMTQSPATLSVTPGDSVSLFCRASQSISNNLHWYQQKSHESPRLLIKYASQSISGIPSRFSGSGSGTDFTLSINSVETEDFGMYFCQQSNSWPLTFGGGTKLEIKR
notes: as for B5
In the case of B7, the binding result [1] is reported as “no binding (tested: 500 nM)”, the Kd [2] is reported as 2.88 nM and the koff [2] is reported as 0.00138 s⁻¹. For the same binder, the kon [2] was 480000 M⁻¹ s⁻¹, the Kd [3] was 2.9 nM and the koff [3] was 0.00123 s⁻¹. It also gave a kon [3] of 423000 M⁻¹ s⁻¹.

B8: I23RB86 (antibody, mouse IgG2a, kappa, V domains shown)
VH: EVQLQQSGAELVKPGASVKLSCKASGYTFTSYWLHWVKQRPGQGLEWIGEIDPSDSYTYYNQKFKGKATLTVDKSSSTAYMQLSSLTSEDSAVYYCARSPYDYDWGAYWGQGTSVTVSS
VL: DIVMTQSPSSMSVSLGDTVSITCHASQGISSNIGWLQQKPGKSFKGLIYHGTNLEDEVPSRFSGSGSGADYSLTIGSLESEDFADYYCVQYAQFPWTFGAGTKLEMKR
notes: as for B5
For B8, the binding result [1] was “no binding (tested: 500 nM)”, the Kd [2] was 8.06 nM and the koff [2] was 0.000587 s⁻¹. For the same binder, the kon [2] was 72800 M⁻¹ s⁻¹, the Kd [3] was 8.14 nM and the koff [3] was 0.000572 s⁻¹. For the same binder, the kon [3] was 70300 M⁻¹ s⁻¹.

B9: I23RB83 (antibody, mouse IgG2a, kappa, V domains shown)
VH: DVQLQESGPGLVAPSQSLSITCTVSGFSLTNYDVHWVRQSPGKGLEWLGVIWSDGSTDYNAAFISRLSFSKDNSKRQVFFKMNSLQPDDTAIYYCARNNYYRYGRNPMDYWGQGTTVTVSS
VL: DIQMTQSPASQSASLGESVTITCLASQTIGSWLAWYQQKPGKSPQLLIYAATSLADGVPSRFSGSGSGTKFSFKISSLQAEDFVSYYCQQLYSSPLTFGGGTKLEIKR
notes: as for B5
In the case of B9, the binding result [1] is reported as “no binding (tested: 500 nM)”, the Kd [2] is reported as 0.366 nM and the koff [2] is reported as 0.000119 s⁻¹. The kon [2] was 325000 M⁻¹ s⁻¹, the Kd [3] was 0.345 nM and the koff [3] was 5.91e-05 s⁻¹. It also gave a kon [3] of 172000 M⁻¹ s⁻¹.

B10: I23RB82 (antibody, mouse IgG2a, kappa, V domains shown)
VH: QVQLKESGPGLVAPSQSLSITCTVSGFSLTNYALHWFRQSPGKGLEWLGVIWSDGSTDYNSPFISRLSISKDNSKSQVFFKMNSLQADDTAIYYCARSRSNYGRWYFDVWGAGTTLTVSS
VL: QIVLSQSHKFMSTSVGDRVSITCKASQDVSTAVAWYQQKPGQSPKLLIYSAFYRYTGVPDRFTGSGSGTDFTFTISSVQAEDLAVYYCQQHYSTPYTFGGGTKLEIKR
notes: as for B5
For B10, the binding result [1] was “no binding (tested: 500 nM)”, the Kd [2] was 4.67 nM and the koff [2] was 0.00247 s⁻¹. It also gave a kon [2] of 529000 M⁻¹ s⁻¹, a Kd [3] of 34.4 nM and a koff [3] of 0.0136 s⁻¹. The kon [3] was 397000 M⁻¹ s⁻¹.

B11: I23RB77 (antibody, mouse IgG2a, kappa, V domains shown)
VH: DVQLQESGPGLVAPSQSLSITCTVSGFSLSRYSVHWVRQPPGKGLEWLGMIWGSGSTDYNSALKSRLSINKDNSKSQVFLKMNSLQTDDTAMYYCARVYYGGSPYAMDYWGQGTTVTVSS
VL: DIVMTQSPASLALSLGQRATISCRASESVDSYGNSFMHWYQQKPGQPPKLLIYLASNLESGVPARFSGSGSRTDFTLTIDPVEADDAAIYYCQQNNEEPNTFGAGTKLEMKR
notes: as for B5
B11 was tested, and the binding result [1] was “no binding (tested: 500 nM)”, the Kd [2] was 1.54 nM and the koff [2] was 0.00214 s⁻¹. It also gave a kon [2] of 1.39e+06 M⁻¹ s⁻¹, a Kd [3] of 18 nM and a koff [3] of 0.01 s⁻¹. For the same binder, the kon [3] was 556000 M⁻¹ s⁻¹.

B12: I23RB73 (antibody, mouse IgG2a, kappa, V domains shown)
VH: EVQLQQSGAELVKPGASVKISCKASGYTFTDHAIHWVKQRPEQGLEWIGYISLGNGDIKYSEKFRGKATLTADKTSNTAYMQLNSLTSEDSAVYFCKRSRVLRWTTYWYFDVWGAGTSVTVSS
VL: DIVMTQSHKFMSTSVGDRVSITCKASQDVSTAVAWYQQKPGQSPKLLIYWASTRLTGVPDRFTGSGSGTDYTLTISSVQAEDLALYYCQQYYNTPLTFGAGTKLELKR
notes: as for B5
For B12, the binding result [1] was “no binding (tested: 500 nM)”, the Kd [2] was 11.7 nM and the koff [2] was 0.00378 s⁻¹. It also gave a kon [2] of 322000 M⁻¹ s⁻¹, a Kd [3] of 13.7 nM and a koff [3] of 0.00293 s⁻¹. For the same binder, the kon [3] was 213000 M⁻¹ s⁻¹.

B13: I23RB61 (antibody, mouse IgG2a, kappa, V domains shown)
VH: DVQLQESGAELVKPGASVKLSCKSFDYTFTSFDINWMKQRPGQGLEWIGWIFPGSGTTNYNEKFKGKATLTADKSSSTAYMHLTSLTSEDSAVYFCARRLTGTRYFDVWGTGTTLTVSS
VL: DIQMTQSHKFLSTSVGDRITITCKASQDVITAVAWYQQKSGQSPKLLIYWASTRHTGVPDRFTGSGSGTDYTLTISNVQAEDLALYYCQQHYTTPPTFGAGTKLELKR
notes: as for B5
B13 was tested, and the binding result [1] was “no binding (tested: 500 nM)”, the Kd [2] was 22.1 nM and the koff [2] was 0.0101 s⁻¹. The kon [2] was 459000 M⁻¹ s⁻¹, the Kd [3] was 5.5 nM and the koff [3] was 0.00195 s⁻¹. It also gave a kon [3] of 355000 M⁻¹ s⁻¹.

Reference: patent US20250179196A1 (Janssen / Centocor, published 2025)
